Data published in patent publication EP1730287B1 (Syngenta Participations AG, dated 2011).

Target: T1, NIM450 bait (first 450 amino acids of the NIM1 protein fused to the LexA DNA binding domain) (Arabidopsis, UniProt P0A7C2 1-202; P93002 1-450)
T1 construct: Truncated bait of the yeast two-hybrid screen
T1 sequence (looked up): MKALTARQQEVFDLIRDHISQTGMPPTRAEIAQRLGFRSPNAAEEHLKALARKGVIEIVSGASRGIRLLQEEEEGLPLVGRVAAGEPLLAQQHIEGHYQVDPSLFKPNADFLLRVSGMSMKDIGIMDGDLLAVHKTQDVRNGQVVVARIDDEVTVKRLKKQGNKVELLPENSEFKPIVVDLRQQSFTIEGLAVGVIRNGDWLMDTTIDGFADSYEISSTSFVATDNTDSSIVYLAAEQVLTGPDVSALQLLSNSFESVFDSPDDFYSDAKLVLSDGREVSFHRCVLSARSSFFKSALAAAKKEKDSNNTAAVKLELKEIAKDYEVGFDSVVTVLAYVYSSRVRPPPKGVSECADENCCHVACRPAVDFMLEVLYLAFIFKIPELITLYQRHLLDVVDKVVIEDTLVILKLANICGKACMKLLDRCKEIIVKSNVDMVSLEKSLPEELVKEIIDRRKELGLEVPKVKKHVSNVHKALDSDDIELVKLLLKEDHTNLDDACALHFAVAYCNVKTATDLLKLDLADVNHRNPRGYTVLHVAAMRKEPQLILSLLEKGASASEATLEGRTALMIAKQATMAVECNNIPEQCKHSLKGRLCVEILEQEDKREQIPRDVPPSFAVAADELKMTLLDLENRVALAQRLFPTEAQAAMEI
Assay: yeast two-hybrid (LexA bait, B42 prey; Leu2 and LacZ reporters)

B1: NI16 clone (Arabidopsis NI16 cDNA clone from the pJG4-5 library, fused to the B42 transcriptional activation domain) (other, not shown: large carriers)
chain: MNNSLKKEERVEEDNGKSDGNRGKPSTEVVRTVTEEEVDEFFKILRRVHVATRTVAKVNGGVAEGELPSKKRKRSQNLGLRNSLDCNGVRDGEFDEINRVGLQGLGLDLNCKPEPDSVSLSL
notes: Prey of the yeast two-hybrid screen; also called NI16 protein
Does B1 bind?
Result: no binding
